Assay results reported in article PMC12839305 (2025).

Target: T1, RVFV glycoprotein Gn head domain (154–469 aa) (Rift Valley fever virus, UniProt P21401 154-469)
T1 chain: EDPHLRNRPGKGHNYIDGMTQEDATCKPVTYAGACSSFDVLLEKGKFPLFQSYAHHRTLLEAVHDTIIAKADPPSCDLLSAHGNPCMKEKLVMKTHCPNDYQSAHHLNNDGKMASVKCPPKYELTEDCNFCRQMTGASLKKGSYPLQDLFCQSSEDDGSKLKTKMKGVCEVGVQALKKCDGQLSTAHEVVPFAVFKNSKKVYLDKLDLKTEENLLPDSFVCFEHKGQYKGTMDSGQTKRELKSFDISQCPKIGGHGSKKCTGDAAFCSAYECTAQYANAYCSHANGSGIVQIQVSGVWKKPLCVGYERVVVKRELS
Assay: BLI

B1: LRP1 single complement-type repeat CR25 fused to human Fc (Fc fusion)
chain: not shown
- Kd: 67 nM
